Test results reported in PMC8188299.

Molecular target: Recombinant hACE2 protein fused with mFc, residues 19-740 (human) (UniProt Q9BYF1)
Test: SPR

UniProt Q9BYF1, sequence (Q9BYF1 19-740): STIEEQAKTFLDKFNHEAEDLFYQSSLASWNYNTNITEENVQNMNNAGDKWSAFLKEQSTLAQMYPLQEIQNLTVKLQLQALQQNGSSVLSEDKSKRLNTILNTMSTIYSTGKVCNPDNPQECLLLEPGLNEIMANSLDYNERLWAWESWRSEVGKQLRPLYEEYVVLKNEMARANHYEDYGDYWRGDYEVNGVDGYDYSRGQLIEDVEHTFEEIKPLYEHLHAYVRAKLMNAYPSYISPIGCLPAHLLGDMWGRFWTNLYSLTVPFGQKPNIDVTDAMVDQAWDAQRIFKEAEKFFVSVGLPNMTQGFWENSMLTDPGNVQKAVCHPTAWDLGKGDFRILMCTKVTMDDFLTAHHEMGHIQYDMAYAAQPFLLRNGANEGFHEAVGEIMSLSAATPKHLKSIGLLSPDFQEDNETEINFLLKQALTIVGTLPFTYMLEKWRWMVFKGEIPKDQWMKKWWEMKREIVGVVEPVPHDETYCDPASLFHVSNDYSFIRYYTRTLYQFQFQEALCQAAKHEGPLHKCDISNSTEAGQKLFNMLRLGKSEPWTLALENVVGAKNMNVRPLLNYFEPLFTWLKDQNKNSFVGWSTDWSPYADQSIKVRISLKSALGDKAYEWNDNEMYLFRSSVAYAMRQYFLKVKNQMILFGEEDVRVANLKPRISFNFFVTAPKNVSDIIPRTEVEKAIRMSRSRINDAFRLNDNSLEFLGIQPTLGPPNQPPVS

Work on “Recombinant RsYN04 RBD protein, residues 309-527 (domain or fragment)” yielded a Kd of 15.9 µM.
